Results taken from US20200190171A1 (FAIRBANKS PHARMACEUTICALS, published 2020).

Columns and labels:
mouse FSTL3 = biological target: T1, mouse FSTL3 (mouse, UniProt Q9EQC7 24-256, limits assumed); experiment: Western blot
T1 construct: also called mFSTL3
T1 sequence (looked up): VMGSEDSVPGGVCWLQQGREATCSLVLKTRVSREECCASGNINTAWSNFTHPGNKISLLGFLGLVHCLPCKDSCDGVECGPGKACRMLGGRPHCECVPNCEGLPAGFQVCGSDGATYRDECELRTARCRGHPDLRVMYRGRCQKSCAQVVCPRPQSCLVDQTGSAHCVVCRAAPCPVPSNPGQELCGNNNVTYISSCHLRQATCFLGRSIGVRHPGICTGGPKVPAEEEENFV
Protocol: (§1) Secondary antibody (donkey anti-mouse IgG-Horse Radish Peroxidase label) was purchased from Jackson Immuno Research in West Grove Pa. Human FSTL3 was produced by Fairbanks Pharmaceuticals by cloning the human FSTL3 cDNA into an expression plasmid containing a 6-His tag. 293 cells were transfected with this plasmid and stable colonies selected. Cells were grown for 7-14 days, medium collected, and FSTL3 was purified on Nickel-Sepharose-Sephadex Beads (GE Healthcare Life Sciences, Pittsburgh Pa. Ligands: activin A (Cat No:338-AC-050), activin B (Cat No:659-AB-005), and MSTN (Cat No:788-68-010) were purchased from R&D Systems (Minneapolis, Minn.). GDF11 (Cat No:TP723130), was purchased from Origene (Rockville Md.)
(§2) Direct binding studies were conducted by performing Western blot, a technique well known in the art. Pre-determined doses of human FSTL3 (hFSTL3) or mouse FSTL3 (mFSTL3), that are easily detectable at the end of experimentation, were loaded onto SDS gels (10% NuPage gels). After electrophoresis, proteins were transferred to PVDF membranes and then tested with the selected and purified anti-hFSTL3 antibodies from FIG. 3.

[1] = biological target: T2, human Follistatin-like-3 (FSTL3) protein, 6-His tagged (human, UniProt O95633 27-263, limits assumed); experiment: Western blot
T2 construct: Made in-house as a secreted protein from stably transfected 293 cells; also called hFSTL3; human FSTL3; not shown: 6-His tag
T2 sequence (looked up): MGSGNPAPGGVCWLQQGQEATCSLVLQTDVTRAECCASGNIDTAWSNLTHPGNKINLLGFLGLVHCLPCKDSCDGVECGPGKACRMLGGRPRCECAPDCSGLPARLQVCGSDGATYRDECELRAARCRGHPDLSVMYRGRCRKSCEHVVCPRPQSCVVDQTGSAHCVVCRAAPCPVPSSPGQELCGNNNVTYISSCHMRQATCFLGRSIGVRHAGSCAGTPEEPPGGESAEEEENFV
Protocol: as §1, §2

binding result (mouse FSTL3): binds
binding result [1]: binds
B1: FP-102 anti-hFSTL3 monoclonal antibody (antibody, V domains shown)
VH: QVKLQQPGAELVKPGASVKLSCKASGYTFTSYWMHWVNQRPGQGLEWIGEINPGNGRTNYNEKFKSKATLTVDKSSSTAYMQLSSLTSEDSAVYFCARWLLPRGPMDYWGQGTSVTVSS
VL: DIVLTQSQKFMSTSVGDRVSVTCKASQNVGTNVAWYQQKPGQSPQGLIYSASYRYSGVPDRFTGSGSGTDFTLTISNVQSEDLAEYFCQQYNSYPLTFGAGTKLELKR
notes: Murine monoclonal from Balb-C mice; also called clone 33
